Measurements from patent US7803377B2, “Anti-DLL4 antibodies and methods using same” (Genentech, Inc., priority 2006, dated 2010).

Columns and labels:
[1] = target: T1, endogenously expressed DLL4 (Homo sapiens, UniProt Q9NR61); test: FACS analysis of HUVECs transfected with control or DLL4-specific siRNA; details: antibody 2 μg/ml, binding reduced with DLL4 siRNA
T1 construct: endogenous in cells; host or cells: HUVEC
Experimental: RNA interference. SMARTpool small interfering RNA (siRNA) duplexes targeting human DLL4 and Si Control Non-Target siRNA #2 were purchased from Dharmacon. Transfection of siRNR duplexes (50 nM) was done with HUVECs at 40% confluency using OptiMEM-1® and Lipfectamine™ 2000 (Invitrogen). FACS analysis was done 48 hr after siRNA transfection. The sequences of the 4 anti-DLL4 SMART pool siRNA were as follows:
FACS analysis of HUVECs transfected with control or DLL4-specific siRNA.

[2] = system: human colon cancer HM7 cells; test: Tumor model HM7; assay type: in vivo, mouse; details: treatment initiated at ≧250 mm^3; 10 mg/kg i.p. twice weekly; two weeks of treatment
Experimental: (§1) Tumor models. Beige nude female mice of 8- to 10-week-old were used. To obtain subcutaneous tumors, mice were injected with 0.1 ml cell suspension containing 50% matrigel (BD Bioscience) into the right posterior flank. 5×10^6 human colon cancer HM7 cells, 10×10^6 human colon carcinoma Colo205 cells, 10×10^6 human lung carcinoma Calu6 cells, 10×10^6 human lung carcinoma MV-522 cells, 10×10^6 mouse leukemia WEHI-3 cells, 10×10^6 mouse lymphoma EL4 cells, 10×10^6 human ovarian cancer SK-OV-3 X1 cells, 10×06 mouse lung cancer LL2 cells, 10×10^6 leukemia/lymphoma EL4 cells, or 10×10^6 non-small lung cancer H1299 cells were injected into each mouse. For human melanoma MDA-MB-435 model, mice were injected into the mammary fat pad with 0.1 ml cell (5×10^6) suspension containing 50% matrigel. […] For the following tumor models, each test mouse received a subcutaneous tumor fragment (1 mm^3) implanted in the right flank: non-small lung cancer SKMES-1, human breast cancer MX-1, human colorectal cancer SW620 and human adenocarcinoma LS174T. The tumor growth was quantitated by caliper measurements. Tumor volume (mm^3) was determined by measuring the length (l) and width (w) and calculating the volume (V=lw2/2). 10 to 15 animals were included in each group. Statistical comparison of treatment groups was performed using two-tailed Student's t-test. […]

[3] = system: non-small lung cancer SKMES-1; test: Tumor model SKMES-1; assay type: in vivo, mouse; details: 5 mg/kg, IP, twice weekly after establishment of the tumors
Experimental: as §1

human breast cancer MX-1 = test: Tumor model MX-1; assay type: in vivo, mouse; details: 5 mg/kg, IP, twice weekly after establishment of the tumors
Experimental: as §1

small intestines = test: Histology and immunohistochemistry of mouse intestines; assay type: in vivo; details: anti-DLL4 antibody 10 mg/kg, twice weekly for 6 weeks
Experimental: FIG. 10: DLL4/Notch was dispensable in the homeostasis of mouse intestine. Immunohistochemical studies of small intestines from control (a, d, g, j), anti-DLL4 antibody (10 mg/kg, twice weekly for 6 weeks) (b, e, h, k), and DBZ treated (30 μmol/kg daily for 5 days) (c, f, i, l) mice.
Histology and immunohistochemistry of mouse intestines. Formalin-fixed and paraffin-embedded mouse small intestine tissues were sectioned at 3 μm thickness. Histochemical identification of intestinal cell types was performed with Alcian blue as recommended by the manufacturer (PolyScientific). For anti-Ki67 staining, sections were pretreated with Target Retrieval Solution (S1700, DAKO), and incubated with rabbit anti-Ki67 (1:200, clone SP6, Neomarkers). Secondary goat anti-rabbit at 7.5 µg/ml (Vector labs) was detected with the Vectastain ABC Elite Kit (Vector labs). All Ki67 stained sections were counterstained with Mayer's hematoxylin. For HES-1 staining, anti-rat HES-1 (clone NM1, MBL, International), followed by TSA-HRP, was used.
A major concern about global inhibition of Notch is that it may be deleterious, given the pleiotropic roles of Notch signaling in regulating the homeostasis of postnatal self-renewal systems. For instance, Notch signaling is required to maintain undifferentiated crypt progenitor cells in intestines (van Es, J. H. et al. Nature 435, 959-63 (2005); Fre, S. et al. Nature 435, 964-8 (2005)). Indeed, γ-secretase inhibitors, which would indiscriminately block all Notch activities, cause unwanted side effects in rodents duo to a massive increase in goblet cells within the crypt compartment (Milano, J. et al. Toxicol Sci 82, 341-58 (2004); Wong, G. T. et al. J Biol Chem 279, 12876-82 (2004)). We examined the small intestines of mice treated with anti-DLL4 Mab by immunohistochemistry analyses.

YW26.82: affinity matured anti-DLL4 monoclonal antibody; HVR-H1/H2/H3 SEQ ID NO:1, 8, 9; HVR-L1/L2/L3 SEQ ID NO:10, 11, 18
binding to endogenously expressed DLL4 by FACS [1]: specifically bound to endogenously expressed DLL4
tumor volume [2]: remained static
tumor growth, single agent [3]: inhibited tumor growth alone
tumor growth, single agent (human breast cancer MX-1): inhibited tumor growth alone
epithelial crypt cell differentiation or proliferation in small intestine (small intestines): entirely absent
expression of Notch target gene HES-1 in transit amplifying (TA) population (small intestines): did not alter the expression of the Notch target gene HES-1
epithelial crypt cell differentiation or proliferation in small intestine (small intestines; listed as anti-DLL4 Mab): no differences in epithelial crypt cell differentiation or proliferation profiles
